Experimental findings from article PMC12285254 are described below.

For this data set, the system named is T1, TetR1 (C_22735) (Pseudomonas syringae pv. actinidiae biovar 3 strain S26 (M228)), ORF:bd32bde6.
T1 sequence: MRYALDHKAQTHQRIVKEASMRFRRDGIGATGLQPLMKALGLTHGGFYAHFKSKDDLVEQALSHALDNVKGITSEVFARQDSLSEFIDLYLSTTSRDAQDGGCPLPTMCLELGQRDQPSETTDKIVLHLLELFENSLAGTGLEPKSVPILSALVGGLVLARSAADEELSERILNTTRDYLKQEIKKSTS
Description: EMSA. As to conditions: LightShift EMSA Optimization and Control kit (Thermo) per manufacturer, 100 ng probe per reaction, varied protein; 2 uL of 1 mg/mL Myc.A7 for supershift ….

“TTGAGTCGAGGATCACAATCTTCTGAAACATGGGCTTACCCTGATTTAATGGTGTGCAAGCCCTATAGCGATAACCATGCCAGCTTAAAAATATAAATAAGCCACTGATTTATAACGATATTTTAAAATATGAAATCCTTTGCAATACAAAACTTTGCGCAAACCGTTTTTTGCCACAACAGCTTTTGGCACAAAAACATCGGCCAGCTTCGCAAGGGAACTGATCCGGGACCGTGACCCACTCAGCGAACATAACCCGGCT (double strand) [hrpL upstream probe (262 bp)]”: the binding result is “binds”.
